Test results as given in the supplement of paper PMC10567573.
± gives the standard deviation.

Assay: protein stability index of a GFP-peptide fusion (GPS, HEK-293T) (PSI 1-6); higher = more stable
[1] = treatment: DMSO, c terminus: a fixed tail appended
[2] = treatment: MLN4924 1 uM, 8 h, c terminus: a fixed tail appended
[3] = treatment: DMSO, c terminus: native
[4] = treatment: MLN4924 1 uM, 8 h, c terminus: native
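Note: 24-mer peptide tiles fused after GFP, lentivirally expressed, FACS-sorted into six equal bins by GFP/DsRed ratio, decoded by Illumina sequencing, PSI is the read-weighted mean bin number.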

LQELCYQWLRPHVSTKEQILDLLV [ZSCAN9]
protein stability index [1]: 2.52 ± 0.094
protein stability index [2]: 2.45 ± 0.28

LQVRGYPEEKKEEEGSANRRPEDQ [CHGA]
protein stability index [1]: 5.61 ± 0.21
protein stability index [2]: 5.7 ± 0.25

LRFLHENQLTHTDLKPENILFVNS [CLK3]
protein stability index [1]: 2.49 ± 0.23
protein stability index [2]: 2.86 ± 0.36

LRFLYSDEVQIGPETVMTTLYTAK [BTBD1]
protein stability index [1]: 2.48 ± 0.38
protein stability index [2]: 1.99 ± 0.24

LRREPSERLTAPEILLHPWFESVL [TRIB1]
protein stability index [1]: 2.51 ± 0.25
protein stability index [2]: 2.74 ± 0.52

LRRKEQLWEKLAKQGELPREVRRA [NOP53]
protein stability index [1]: 3.58 ± 0.18
protein stability index [2]: 3.7 ± 0.36

LRVGIPENAPIGTLLLRLNATDPD [PCDHGC5]
protein stability index [1]: 2.92 ± 0.18
protein stability index [2]: 3.22 ± 0.32

LSGASPFLGETKQETLTNISAVNY [DAPK3]
protein stability index [1]: 3.73 ± 0.2
protein stability index [2]: 3.85 ± 0.25

LSKASEPKYQLFVPQLVTGRCATR [RNF180]
protein stability index [1]: 2.88 ± 0.4
protein stability index [2]: 2.94 ± 0.2

LSPTQRQKNFELAFTMAENLANCE [SMTNL2]
protein stability index [1]: 3.39 ± 0.19
protein stability index [2]: 3.67 ± 0.52

LSRRQLCPLTPGPGKALGPAATMA [C2CD2L]
protein stability index [1]: 2.93 ± 0.37
protein stability index [2]: 3.13 ± 0.38

LSSSCCHTVPDFHLSSPAKNFFKK [PLK2]
protein stability index [1]: 2.99 ± 0.18
protein stability index [2]: 3.25 ± 0.31

LTCNNYKNKMMVCQVGGIEALVRT [CTNNB1]
protein stability index [1]: 2.32 ± 0.38
protein stability index [2]: 2.23 ± 0.56

LTCVICLNYLVDPVTICCGHSFCR [TRIM43]
protein stability index [1]: 2.83 ± 0.82
protein stability index [2]: 2.91 ± 0.97

LTLKVCKPQAPQKLDPTLSSCFFI
protein stability index [1]: 2.37 ± 0.59
protein stability index [2]: 2.3 ± 0.3

LTSQNIEIKLVSDVTADSKVLEAL [PLD5]
protein stability index [1]: 3.13 ± 0.31
protein stability index [2]: 3.18 ± 0.43

LVCTFSSQVCRVAYEIMQTLHPDA [FUT8]
protein stability index [1]: 2.95 ± 0.12
protein stability index [2]: 3.22 ± 0.55

LVFPSSSSSSSSQAPGQPPGNQAE [ZBTB22]
protein stability index [1]: 5.06 ± 0.2
protein stability index [2]: 4.71 ± 0.067

LVLKVLWNDFLMCYSSRPLLCWSV [SLC19A2]
protein stability index [1]: 3.19 ± 0.48
protein stability index [2]: 3.45 ± 0.53

LVLVVNTLRRIQASMAPAAALPPV [SERTAD1]
protein stability index [1]: 2.35 ± 0.099
protein stability index [2]: 2.33 ± 0.2

LVQTTDFFYPLVEDPYMMGRIACA [SEPHS2]
protein stability index [1]: 2.34 ± 0.47
protein stability index [2]: 2.23 ± 0.29

LVVASGVIYCLGGYDGLNILNSVE [KLHL12]
protein stability index [1]: 3.28 ± 0.25
protein stability index [2]: 3.03 ± 0.16

LVWRNSIRSSFISSLSFFLKKMGK [FBXO39]
protein stability index [1]: 2.65 ± 0.65
protein stability index [2]: 2.9 ± 0.46

LWDTSGQGRFCTIFRSYSRGAQGV [RAB40A]
protein stability index [1]: 2.24 ± 0.41
protein stability index [2]: 2.51 ± 0.36

LWSDPMAQEGCKANTIRGGGCYFG [PPEF2]
protein stability index [1]: 2.68 ± 0.73
protein stability index [2]: 2.5 ± 0.44

LYLFGGHHSRGNTNKFYMLDSRST [KLHDC2]
protein stability index [1]: 2.16 ± 0.12
protein stability index [2]: 2.17 ± 0.18

LYPNPRERSSFYSCAGGRLFQQSC [CHIT1]
protein stability index [1]: 1.94 ± 0.21
protein stability index [2]: 2.37 ± 0.43

MAAGQNGHEEWVGSAYLFVESSLD [TRADD]
protein stability index [1]: 2.05 ± 0.26
protein stability index [2]: 2.65 ± 0.37

MAAGSTTLHAVEKLQVRLATKTEP [ELOA2]
protein stability index [1]: 3.62 ± 0.23
protein stability index [2]: 3.61 ± 0.36

MALKTSLGSVQFMEQFCWPHLRSF
protein stability index [1]: 3.01 ± 0.86
protein stability index [2]: 2.69 ± 0.73

MATATPVPPRMGSRAGGPTTPLSP [LMNB1]
protein stability index [1]: 4.21 ± 0.17
protein stability index [2]: 4.24 ± 0.29

MDYKSSLIQDGNPMENLEKQLICP [TRIM63]
protein stability index [1]: 4.06 ± 0.29
protein stability index [2]: 4.14 ± 0.16

MEDEMPKTLYVGNLSRDVTEALIL [TIA1]
protein stability index [1]: 2.41 ± 0.36
protein stability index [2]: 2.63 ± 0.28

MEIMEAYSVARQFNLTPPICEQAE [KCNAB2]
protein stability index [1]: 3.72 ± 0.18
protein stability index [2]: 3.65 ± 0.33

MEKATVPVAAATAAEGEGSPPAVA [ANKRD17]
protein stability index [1]: 5.67 ± 0.24
protein stability index [2]: 5.65 ± 0.11

MFRSKRSGLVRRLWRSRVVPDREE [SMAD6]
protein stability index [1]: 2.67 ± 0.17
protein stability index [2]: 3.24 ± 0.5

MGTSHGITRPSPRRSNSPDKFKRP [CCDC6]
protein stability index [1]: 4.71 ± 0.087
protein stability index [2]: 4.89 ± 0.11

MHGNEALGRELMLQLSEFLCEEFR [CPN1]
protein stability index [1]: 2.24 ± 0.49
protein stability index [2]: 2.67 ± 0.22

MIARCLLAVRSLRRVGGSRILLRM [NLN]
protein stability index [1]: 2.35 ± 0.74
protein stability index [2]: 2.05 ± 0.39

MISTYEFGKSFFQRLNQDRLLGG [SLC25A39]
protein stability index [3]: 3.21 ± 0.83
protein stability index [4]: 2.44 ± 0.27

MITVQLPEVPANENIKGYYIIIVP [PTPRD]
protein stability index [1]: 3 ± 0.77
protein stability index [2]: 2.99 ± 0.62

MKFVPRYSLVLELSDSGAFRRSLH [APMAP]
protein stability index [1]: 2.17 ± 0.54
protein stability index [2]: 2.03 ± 0.51

MKYYIVHLKRHFMFRNHLCLVFEL [DYRK1B]
protein stability index [1]: 2.9 ± 0.53
protein stability index [2]: 2.44 ± 0.63

MLTTRVFSLVGKRAISTSVCVRAH [COX4I1]
protein stability index [1]: 2.56 ± 0.64
protein stability index [2]: 2.4 ± 0.59

MPHARTETSVGTYESHSTSELEDL [TPD52L3]
protein stability index [1]: 5.43 ± 0.18
protein stability index [2]: 5.37 ± 0.3

MQEKNPVHVIGVEEPSVGASMLFD [ZNF8]
protein stability index [1]: 4.41 ± 0.094
protein stability index [2]: 4.34 ± 0.2

MQENITKVIERGERLDELQDKSES [VAMP4]
protein stability index [1]: 5.04 ± 0.37
protein stability index [2]: 5.05 ± 0.41

MQRMIQQFAAEYTSKNSSTQDPSQ [LCOR]
protein stability index [1]: 3.69 ± 0.41
protein stability index [2]: 3.68 ± 0.45

MRAQAQEQERRERREQAAAAPFPS [TFE3]
protein stability index [1]: 5.09 ± 0.26
protein stability index [2]: 4.91 ± 0.22

MSAAQGWDRNRRRGGGAAGAGGGG [KLHDC10]
protein stability index [1]: 4.97 ± 0.27
protein stability index [2]: 4.92 ± 0.25

MSDRRENDMSPSNNVVPIHVPPTT [RAB11A]
protein stability index [1]: 4.67 ± 0.17
protein stability index [2]: 4.87 ± 0.12

MSPSMLTRNSPRGCRLPSISSTTC [SPATS1]
protein stability index [1]: 2.97 ± 0.18
protein stability index [2]: 3.03 ± 0.2

MSVNVNRSVSDQFYRYKMPRLIAK [EIF5]
protein stability index [1]: 2.52 ± 0.14
protein stability index [2]: 2.77 ± 0.29

MTVKQYEAARLEYDAYRTDLEELS [ARFIP2]
protein stability index [1]: 3.84 ± 0.19
protein stability index [2]: 3.97 ± 0.21

MVMIRGNSGLKPKDNEFTSKPWHW [POMT2]
protein stability index [1]: 2.38 ± 0.26
protein stability index [2]: 2.21 ± 0.25

MYLSPPSIHCLGPIKLELLEPKAN [VPS39]
protein stability index [1]: 2.26 ± 0.38
protein stability index [2]: 2.41 ± 0.39

MYYRGSAAAIIVYDITKEETFSTL [RAB22A]
protein stability index [1]: 2.75 ± 0.69
protein stability index [2]: 2.72 ± 0.84

NACATKEQKNHTFPRLNRNKYMVT [PLD5]
protein stability index [1]: 3.63 ± 0.3
protein stability index [2]: 3.77 ± 0.41

NAEMVQQTTYLEDRPMFMLQCAME [LOXL2]
protein stability index [1]: 3.11 ± 0.25
protein stability index [2]: 3 ± 0.1

NAFQETWYWHGDVNSNKVVMSGVK [LOXL2]
protein stability index [1]: 2.75 ± 0.31
protein stability index [2]: 2.84 ± 0.48

NDTKKMYAMKYMNKQKCVERNEVR [STK32A]
protein stability index [1]: 3.71 ± 0.2
protein stability index [2]: 3.97 ± 0.33

NEWRMVASMSKRRCGVGVSVLDDL [KLHL20]
protein stability index [1]: 2.27 ± 0.52
protein stability index [2]: 2.25 ± 0.34

NGDVSAPSAILRTPESTKPGPVCQ [ANKRD40]
protein stability index [1]: 4.782 ± 0.036
protein stability index [2]: 4.83 ± 0.13

NGQKPLGAAEPITVKFANNPSQKT [ELAVL3]
protein stability index [1]: 4.85 ± 0.36
protein stability index [2]: 4.83 ± 0.23

NIAIMTEEPELSPAYLISEAMRRS [GFOD1]
protein stability index [1]: 3.5 ± 0.27
protein stability index [2]: 3.72 ± 0.2

NLLEKFFEMKKGQCKDALEIYKRF [SNAP91]
protein stability index [1]: 2.41 ± 0.46
protein stability index [2]: 2.69 ± 0.8

NPAPAAPCPLGEPKTQACSGSESP [MYCL]
protein stability index [1]: 5.57 ± 0.23
protein stability index [2]: 5.63 ± 0.15

NPFKERICRVFSTSPAKDSLSFED [CIB1]
protein stability index [1]: 2.77 ± 0.21
protein stability index [2]: 2.75 ± 0.2

NPNLSNRRGSTPLHMAVERRVRGV [RIPK4]
protein stability index [1]: 3.84 ± 0.56
protein stability index [2]: 4.47 ± 0.65

NPWNWGKLAEAYLNLGPALSAALA [C8orf76]
protein stability index [1]: 2.57 ± 0.26
protein stability index [2]: 2.44 ± 0.15

NQGLNVMVWNQNGKSPSITFEYTL [ADAMTSL2]
protein stability index [1]: 3.01 ± 0.3
protein stability index [2]: 2.64 ± 0.53

NQNNYRLLSCGKILTGCKNMLFQQ [ACSBG2]
protein stability index [1]: 2.9 ± 1.2
protein stability index [2]: 2.3 ± 0.69

NQVVSSTNGELNTDDPTAGRSNAP [CSNK1G3]
protein stability index [1]: 5.41 ± 0.28
protein stability index [2]: 5.5 ± 0.17

NRRLRALEEQGATWRHRETLIIAV [FATE1]
protein stability index [1]: 2.46 ± 0.39
protein stability index [2]: 2.22 ± 0.15

NSESWGWDIGRGKLYHQSKGPGAP [SPSB2]
protein stability index [1]: 3.63 ± 0.17
protein stability index [2]: 3.98 ± 0.25

NSFGAILQGSLFGLAGLLPASYTA [SLC29A1]
protein stability index [1]: 2.21 ± 0.27
protein stability index [2]: 2.9 ± 0.84

NSNGGNLNSPPGPHSAKTEEHTTI [CDC14A]
protein stability index [1]: 5.28 ± 0.17
protein stability index [2]: 5.49 ± 0.2

NSVTAGDYSRPLHISTFINELDSG [TSN]
protein stability index [1]: 3.54 ± 0.19
protein stability index [2]: 3.71 ± 0.18

NTFFCHSNMCINNTLVCNGLQNCV [NETO1]
protein stability index [1]: 2.13 ± 0.41
protein stability index [2]: 2.07 ± 0.38

NTLRCQLGDRLNVEVDAAPAVDLN [KRT33B]
protein stability index [1]: 4.47 ± 0.19
protein stability index [2]: 4.39 ± 0.22

NTNSDPLDPSFPVEFVRHGDIIRL [POMT2]
protein stability index [1]: 2.69 ± 0.38
protein stability index [2]: 2.86 ± 0.28

NVSVMHKSLDNMPNDEHWKALSRK [FBXO33]
protein stability index [1]: 4.19 ± 0.089
protein stability index [2]: 4.03 ± 0.14

NYLAEHCPPLHIPGSMSEVQELCK [TNNI2]
protein stability index [1]: 3.91 ± 0.19
protein stability index [2]: 3.78 ± 0.11

PCQKSPNGVRVFPPAMPPPATHLS [TRIM9]
protein stability index [1]: 3.63 ± 0.31
protein stability index [2]: 3.78 ± 0.15

PCSGSVSLQPRRSIAFRLRLASFD [GMCL1]
protein stability index [1]: 2.58 ± 0.39
protein stability index [2]: 2.24 ± 0.27

PCVRPGVSGSPVTQNHAASALPTG [FBF1]
protein stability index [1]: 4.45 ± 0.26
protein stability index [2]: 4.5 ± 0.06

PCYSRQFITSCPCWLEILLNNPR [SMAD6]
protein stability index [3]: 2.92 ± 0.28
protein stability index [4]: 2.77 ± 0.42

PDGVWAYNRGEHPIFVNSPTLDAP [SMAD6]
protein stability index [1]: 3.56 ± 0.34
protein stability index [2]: 3.62 ± 0.16

PEEGQQPWLCGESFTLADVSLAVT [GDAP1]
protein stability index [1]: 3.27 ± 0.23
protein stability index [2]: 3.4 ± 0.21
